The record followed here is patent US20090123447A1, “COMPOSITIONS AND METHODS TO INHIBIT RNA VIRAL REPRODUCTION” (priority 2007, published 2009).

Data set [1] relates to subgenomic HCV replicon of genotype 1b. Description: microbe, parasite or virus in culture. It is filed as cell-based, hepatitis C virus. The protocol: Huh7 human hepatoma cells were cultured in Dulbecco's modified Eagle medium (DMEM; Invitrogen, Carlsbad, Calif., USA) supplemented with 10% fetal bovine serum (FBS; Invitrogen), 100 units/ml of penicillin, and 100 μg/ml of streptomycin in a 5% CO2 incubator. SgPC2 cells are G418-selected, pooled Huh7 cell clones that support the continuous replication of a subgenomic HCV replicon of genotype 1b and [29] (GenBank Accession No. AJ242652) that carries a S11791 adaptive mutation within the NS5A region. SgPC2 cells were maintained in the above medium supplemented with 0.5 mg/ml G418 (Invitrogen). G418 was removed at least 1 day before cell treatments.

The test system of data set [2] is JFH1 HCV (genotype 2a). It counts as cell-based, hepatitis C virus. As to conditions: JFH1-transfected cells, 0.25 mU/mL GO plus glucose. Here is the method: (§1) For viral RNA transfection, JFH1, JFH1/GND, and pSGR-JFH1-Luc were linearized with XbaI and used to synthesize the corresponding positive-sense stranded HCV RNA, as previously described (68). Then, 5×10^6 Huh7 cells were rinsed with Opti-Mem (Invitrogen), mixed briefly with 10-20 μg of the in vitro transcribed RNA in 0.4 ml of Opti-Mem, and then electroporated at 260 volts and 950 μF. […] Medium was changed daily. For infection with HCV, medium collected from JFH1 RNA-transfected cells were cleared of cell debris, as described, and added to naïve Huh7 cells. Typically, 1:2 or 3:2 ratio of the virus-containing medium and fresh cell culture medium were used.
JFH1/GND was used as the negative control. […]
Intracellular JFH1 HCV RNA content was also analyzed by qRT-PCR (Taqman), using ABI7300 real time PCR system and one step RT-PCR kit from Applied Biosystems. […] All samples were analyzed in duplicates or triplicates. […] The level of 18S rRNA was also analyzed, using manufacturer-optimized protocol, as the control.
To analyze the amount of the extracellular HCV RNA, medium from the cells were cleared by low-speed centrifugation and then, treated with RNaseA at room temperature. Then, the RNA samples were extracted, using Trizol LS Reagent (Invitrogen), and analyzed for HCV RNA content by qRT-PCR.

In data set [3] the test system is SgJFH1-Luc RNA (subgenomic JFH1 replicon). Put plainly: SgJFH1-Luc RNA replication in Huh7 cells, luciferase assay. The conditions noted are these: Huh7 cells transfected with SgJFH1-Luc RNA. It is filed as cell-based, hepatitis C virus. Here is the method: as §1
SgJFH1-Luc RNA replication was also monitored by firefly luciferase reporter assay, using a kit from Promega.
To investigate whether the HCV RNA replication is modulated by ROS, Huh7 cells were transfected with the SgJFH1-Luc RNA and treated with GO plus glucose.
After 24 and 48 hours, respectively, the cells were collected in PBS, centrifuged, lysed in the reporter lysis buffer (Promega), and analyzed for luciferase activity.

For data set [4], the system named is intracellular calcium concentration ([Ca^2+]i). Description: [Ca^2+]i measurement with Indo-1 AM in SgPC2 cells. The conditions noted are these: 24 h, 2 mU/ml GO. It is filed as cell-based, human. The protocol: Briefly, on the day of the experiment, cells were washed in Krebs-Ringer phosphate buffer (KRPH; pH 7.4, containing 1.0 mM MgSO4, 1.3 mM CaCl2, 10 mM Hepes, 5 mM glucose, 125 mM NaCl, 5 mM KCl, and 10 mM sodium phosphate) and subsequently loaded with 10-20 μM Indo-1 AM (70 μl/coverslip; Molecular Probes, Inc., Eugene, Oreg., USA) containing 10 μM probenecid (Molecular Probes) for 30 min at 37° C. The attached cells were washed and bathed in KRPH/probenecid at 4° C. or room temperature until further analysis. Then, coverslips were individually submerged into KRPH and preequilibrated inside the […] fluorimeter (Hitachi) in darkness for 3 min, and [Ca^2+]i was monitored continuously at 37° C., with excitation at […] and emission at 400 and 450 nm. H2O2 and other agents were injected at different time points, as indicated under Results. [Ca^2+]i was calculated as described. Rmax was determined by adding 8-16 μM digitonin and Rmin with 10 mM ethylene glycol-bis(β-aminoethyl)-N,N,N'-tetraacetic acid (EGTA). […] The baseline, which represented unstimulated cells scanned over time, was plotted along with other measurements or subtracted from the other plots. Cells were serum-depleted, 1 day before the experiment, by incubating them overnight in DMEM plus 0.5% FBS. […] Then, CaCl2 was added before determining the Rmax for each run.

For data set [5], the system named is HCV NS5A. The conditions noted are these: after 24 h of GO exposure. The protocol:
Cells were sonicated in 2× Laemmli buffer and total protein samples were analyzed for HCV NS5A level by Western blot, using monoclonal anti-NS5A antibodies (Biodesign) and the corresponding horseradish peroxidase-conjugated secondary antibodies. Chemiluminescent images were processed with an ECL kit from Amersham Pharmacia and analyzed with the IS2000 gel imaging system (Kodak).

For data set [6], the system named is JFH1-transfected cells. Description: ATP concentration as cytotoxicity measure in JFH1-transfected cells. As to conditions: JFH1-transfected cells, concentrations used. The protocol: Determination of ATP concentrations—ATP level was measured, using Somatic Cell ATP Assay kit from Sigma-Aldrich, as previously described (68). Protein level was determined with bicinchoninic acid kit (Pierce Biotechnology, Inc., Rockford, Ill.).
ATP concentration was measured to determine if the treatments were cytotoxic to the cells.

B1: IFN-γ: interferon-γ, known to inhibit HCV RNA replication in Huh7 cells (protein, UniProt P01579 24-161, looked up)
Interferon gamma: QDPYVKEAENLKKYFNAGHSDVADNGTLFLGILKNWKEESDRKIMQSQIVSFYFKLFKNFKDDQSIQKSVETIKEDMNVKFFNSNKKKRDDFEKLTNYSVTDLNVQRKAIHELIQVMAELSPAAKTGKRKRSQMLFRG
As for B1, the “effect on HCV RNA replication after 30 min of treatment” value in data set [1] (30 min treatment) is “no appreciable effect”. Moreover, the “HCV RNA level, % of control level” value in data set [1] (SgPC2 cells, 24 h, 100 U/ml) was “about 15%”.

B2: catalase: exogenous catalase (Sigma-Aldrich) added to confirm the role of H2O2 (protein, UniProt P00432 2-527, looked up)
Catalase: ADNRDPASDQMKHWKEQRAAQKPDVLTTGGGNPVGDKLNSLTVGPRGPLLVQDVVFTDEMAHFDRERIPERVVHAKGAGAFGYFEVTHDITRYSKAKVFEHIGKRTPIAVRFSTVAGESGSADTVRDPRGFAVKFYTEDGNWDLVGNNTPIFFIRDALLFPSFIHSQKRNPQTHLKDPDMVWDFWSLRPESLHQVSFLFSDRGIPDGHRHMNGYGSHTFKLVNANGEAVYCKFHYKTDQGIKNLSVEDAARLAHEDPDYGLRDLFNAIATGNYPSWTLYIQVMTFSEAEIFPFNPFDLTKVWPHGDYPLIPVGKLVLNRNPVNYFAEVEQLAFDPSNMPPGIEPSPDKMLQGRLFAYPDTHRHRLGPNYLQIPVNCPYRARVANYQRDGPMCMMDNQGGAPNYYPNSFSAPEHQPSALEHRTHFSGDVQRFNSANDDNVTQVRTFYLKVLNEEQRKRLCENIAGHLKDAQLFIQKKAVKNFSDVHPEYGSRIQALLDKYNEEKPKNAVHTYVQHGSHLSAREKANL
In the case of B2, the “effect on the suppression of HCV RNA by GO” value in data set [1] (SgPC2 cells, GO 24 h, 130-200 U/ml catalase or 2 μM BAPTA-AM) is recorded as “attenuated the suppression by GO”.

B3: GO: enzyme which catalyzes the oxidation of β-D-glucose to D-glucono-1,5-lactone and hydrogen peroxide (protein, UniProt P13006 17-605, looked up)
Glucose oxidase: LPHYIRSNGIEASLLTDPKDVSGRTVDYIIAGGGLTGLTTAARLTENPNISVLVIESGSYESDRGPIIEDLNAYGDIFGSSVDHAYETVELATNNQTALIRSGNGLGGSTLVNGGTWTRPHKAQVDSWETVFGNEGWNWDNVAAYSLQAERARAPNAKQIAAGHYFNASCHGVNGTVHAGPRDTGDDYSPIVKALMSAVEDRGVPTKKDFGCGDPHGVSMFPNTLHEDQVRSDAAREWLLPNYQRPNLQVLTGQYVGKVLLSQNGTTPRAVGVEFGTHKGNTHNVYAKHEVLLAAGSAVSPTILEYSGIGMKSILEPLGIDTVVDLPVGLNLQDQTTATVRSRITSAGAGQGQAAWFATFNETFGDYSEKAHELLNTKLEQWAEEAVARGGFHNTTALLIQYENYRDWIVNHNVAYSELFLDTAGVASFDVWDLLPFTRGYVHILDKDPYLHHFAYDPQYFLNELDLLGQAAATQLARNISNSGAMQTYFAGETIPGDNLAYDADLSAWTEYIPYHFRPNYHGVGTCSMMPKEMGGVVDNAARVYGVQGLRVIDGSIPPTQMSSHVMTVFYAMALKISDAILEDYASMQ
For the molecule B3, the “decrease of intracellular HCV RNA content” value in data set [2] came out at 30±8%. In addition, the “HCV RNA level by luciferase activity” value in data set [3] is listed as “decreased HCV RNA level”. Also, the intracellular calcium concentration in data set [4] was 66.4 ± 10.7 nM. In addition, the NS5A protein level entry in data set [5] was “decrease”. In addition, the “effect on HCV RNA level / replication” value in data set [1] is on record as “dose-dependently suppressed”. In data set [6], the “cytotoxicity (ATP concentration, cell survivability)” value is “did not cause any loss in cell survivability”.
